Measurements from patent US11633477B2, “Treatment of cornea using laminin” (KYOTO PREFECTURAL PUBLIC UNIVERSITY CORPORATION, priority 2014, dated 2023).
Structures can show the parent of a compound that is named as a salt.

B1: laminin 511-E8 fragment: E8 fragment of human laminin α5β1γ1 (Nippi. Inc., 382-02413) (protein)
chain 1: AAEDAAGQALQQADHTWATVVRQGLVDRAQQLLANSTALEEAMLQEQQRLGLVWAALQGARTQLRDVRAKKDQLEAHIQAAQAMLAMDTDETSKKIAHAKAVAAEAQDTATRVQSQLQAMQENVERWQGQYEGLRGQDLGQAVLDAGHSVSTLEKTLPQLLAKLSILENRGVHNASLALSASIGRVRELIAQARGAASKVKVPMKFNGRSGVQLRTPRDLADLAAYTALKFYLQGPEPEPGQGTEDRFVMYMGSRQATGDYMGVSLRDKKVHWVYQLGEAGPAVLSIDEDIGEQFAAVSLDRTLQFGHMSVTVERQMIQETKGDTVAPGAEGLLNLRPDDFVFYVGGYPSTFTPPPLLRFPGYRGCIEMDTLNEEVVSLYNFERTFQLDTAVDRPCARSKSTGDPWLTDGSYLDGTGFARISFDSQISTTKRFEQELRLVSYSGVLFFLKQQSQFLCLAVQEGSLVLLYDFGAGLKKAVPLQPPPPLTSASKAIQVFLLGGSRKRVLVRVERATVYSVEQDNDLELADAYYLGGVPPDQLPPSLRRLFPTGGSVRGCVKGIKALGKYVDLKRLNTTGVSAGCTADLLVGRAMTFHGHGFLRLALSNVAPLTGNVYSGFGFHSAQDSALLYYRASPDGLCQVSLQQGRVSLQLLRTEVKTQAGFADGAPHYVAFYSNATGVWLYVDDQLQQMKPHRGPPPELQPQPEGPPRLLLGGLPESGTIYNFSGCISNVFVQRLLGPQRVFDLQQNLGSVNVSTGCAPALQAQTPGLGPRGLQATARKASRRSRQPARHPA
chain 2: LQHSAADIARAEMLLEEAKRASKSATDVKVTADMVKEALEEAEKAQVAAEKAIKQADEDIQGTQNLLTSIESETAASEETLFNASQRISELERNVEELKRKAAQNSGEAEYIEKVVYTVKQSAEDVKKTLDGELDEKYKKVENLIAKKTEESADARRKAEMLQNEAKTLLAQANSKLQLLKDLERKYEDNQRYLEDKAQELARLEGEVRSLLKDISQKVAVYSTCL
chain 3: EANDILNNLKDFDRRVNDNKTAAEEALRKIPAINQTITEANEKTREAQQALGSAAADATEAKNKAHEAERIASAVQKNATSTKAEAERTFAEVTDLDNEVNNMLKQLQEAEKELKRKQDDADQDMMMAGMASQAAQEAEINARKAKNSVTSLLSIINDLLEQLGQLDTVDLNKLNEIEGTLNKAKDEMKVSDLDRKVSDLENEAKKQEAAIMDYNRDIEEIMKDIRNLEDIRKTLPSGCFNTPSIEKP

Experiments:
[1] = test system: rabbit bullous keratopathy model; experiment: Adhesion of injected cells to substrate after 24 hours in rabbit bullous keratopathy model, laminin with ROCK inhibitor; type: in vivo; settings: average; 24 hours after injection of cultured RCEC into anterior chamber; Y-27632 100 μM in both groups, with or without laminin 511-E8 fragments 2.1 nM
Experimental: A rabbit corneal endothelium was mechanically detached to make a bullous keratopathy model. Adhesion of injected cells to a substrate after 24 hours was compared between individuals injected with cultured rabbit corneal endothelial cells together with a ROCK inhibitor Y-27632 (+) (100 μM) into the anterior chamber and individuals injected with cells together with laminin 511-E8 fragments (2.1 nM) and Y-27632 (+) (100 μM). The rabbit was euthanized after 24 hours. Corneal tissue was extracted and subjected to phalloidin staining to evaluate the morphology and cell count of adhered cells.

[2] = test system: rabbit bullous keratopathy model; experiment: Cultured corneal endothelium transplantation in rabbit bullous keratopathy model using laminin 511-E8 fragment; type: in vivo
Experimental: A rabbit corneal endothelium was mechanically detached using a 20 gauge silicone needle (Soft Tapered Needle; Inami & Co., Ltd., Tokyo, Japan) to make a bullous keratopathy model. The control group is a produced model that was not injected with cells. The RCEC group was injected with cultured rabbit corneal endothelial cells in the anterior chamber of the produced model and was maintained in a face-down posture for three hours. Further, the RCEC+E8 group was injected with cultured rabbit corneal endothelial cells, together with DMEM containing laminin 511-E8 fragments adjusted to a concentration of 2.1 nM, into the anterior chamber of the produced model and was maintained in a face-down posture for three hours.
The corneal thickness of an individual produced in FIG. 1 was measured sequentially with an ultrasound pachymeter (SP-2000; Tomey, Nagoya, Japan). When unmeasurable, 1200 μm, which is the measurable upper limit value, was used.
The histological examination in FIG. 3 was conducted as follows. The examination was checking normal functioning with immunostaining using Na^+/K^+-ATPase and ZO-1. This is for examining the functions of corneal endothelial cells, pumping function and barrier function. Na^+/K^+-ATPase and ZO-1 indicate normalcy of corneal endothelial cell functions, pumping function and barrier function, respectively. The approach is as follows.
After cells were immobilized, ZO-1 and Na^+/K^+-ATPase were used as function associated markers and immunostaining was applied for observation with a fluorescence microscope. For tissue staining inspection, cornea tissue extracted from a rabbit was immobilized with 4% formaldehyde for 10 minutes at room temperature (RT) and was incubated for 30 minutes with 1% bovine serum albumin (BSA). To find the phenotype of regenerated corneal endothelial tissue, immunohistochemical analysis was performed on an adhesion binding associated protein ZO-1 and pumping function associated protein Na^+/K^+-ATPase. ZO-1 and Na^+/K^+-ATPase were used as markers associated with cell functions. ZO-1 and Na^+/K^+-ATPase were stained using 1:200 dilution of ZO-1 polyclonal antibodies (Zymed Laboratories, Inc., South San Francisco, Calif.) and Na^+/K^+-ATPase monoclonal antibodies (Upstate Biotec, Inc., Lake Placid, N.Y.). 1:2000 dilution of Alexa Fluor®488 label (Life Technologies Corp., Carlsbad, Calif.) was used as the secondary antibody. The nucleus of cells was then stained with DAPI (Vector Laboratories, Inc., Burlingame, Calif.). The cell morphology was further stained with 1:400 dilution of Alexa Fluor® 488-conjugated phalloidin (Life Technologies Corp., Carlsbad, Calif.). The slide was then observed under a fluorescence microscope (TCS SP2 AOBS; Leica Microsystems, Welzlar, Germany).

p-Paxillin = experiment: Western blot of cell adhesion associated protein p-Paxillin in corneal endothelial cells; type: cell-based, human; settings: HCEC; laminin 511-E8 fragments 2.1 nM; three hours after seeding
Experimental: (§1) The medium was completely removed from a culture dish culturing human corneal endothelial cells. The cells were washed twice with PBS (−). After washing, phosphate buffer was added, and the mixture was incubated for 5 minute at 37° C. (5% CO2). Subsequently, PBS (−) was removed and TrypLE™ Select (10×) (Life Technologies, A12177-01) was added. The mixture was incubated for 10 minutes at 37° C. (5% CO2). Opti-MEMI (Life Technologies, 31985-070) was then added to collect the cells. After collecting the cells, the cells were centrifuged for 3 minutes at 1200 rpm to make a cell suspension with Opti-MEM I. At this time, a laminin 511-E8 fragment free group was prepared as a control, as well as a group supplemented with laminin 511-E8 fragments so that the final concentration was 2.1 nM. At the same time, mouse IgG and integrin neutralizing antibody were added to the laminin 511-E8 fragment added group to adjust the final concentration to 2 μg/ml. After adjustment, cells were seeded on a 12-well plate at 1×10^5 cells/well and proteins were collected after three hours of seeding. Western blot was used to detect Phospho-FAK (Cell Signaling TECHNOLOGY, 8556S), FAK (Cell Signaling TECHNOLOGY, 32855), and p-Paxillin (Cell Signaling TECHNOLOGY, 2541S). The dilution factor for each antibody was 1:1000. The densitometry was quantified using Image J.

[3] = test system: human corneal endothelial cells; experiment: Adhesion of corneal endothelial cells (CellTiter-Glo, 24 hours after seeding); type: cell-based; settings: laminin 511-E8 fragments 2.1 nM added on seeding; relative to fragment free cells; HCEC
Experimental: The medium was completely removed from a culture dish culturing human corneal endothelial cells. The cells were washed twice with PBS (−). After washing, phosphate buffer was added, and the mixture was incubated for 5 minute at 37° C. (5% CO2). Subsequently, PBS (−) was removed and TrypLE™ Select (10×) (Life Technologies, A12177-01) was added. The mixture was incubated for 10 minutes at 37° C. (5% CO2). Opti-MEMI (Life Technologies, 31985-070) was then added to collect the cells. After collecting the cells, the cells were centrifuged for 3 minutes at 1200 rpm to make a cell suspension with Opti-MEM I. At this time, a laminin 511-E8 fragment free group was prepared as a control, as well as a group supplemented with laminin 511-E8 fragments so that the final concentration was 2.1 nM. At the same time, mouse IgG and integrin neutralizing antibody were added to the laminin 511-E8 fragment added group to adjust the final concentration to 2 μg/ml. After the adjustment, cells were seeded on a 96-well plate at 5000 cells/well and were incubated for 24 hours at 37° C. (5% CO2). After 24 hours of seeding, the medium was completely removed and the cells were washed twice with PBS (−). After washing, a medium and CellTiter-Glo Luminescent Cell Viability Assay (Promega Corporation, Madison, Wis.) were added at a ratio of 1:1. […]

[4] = test system: rabbit bullous keratopathy model; experiment: Cultured corneal endothelium transplantation in rabbit bullous keratopathy model with or without Descemet's membrane detachment, laminin with ROCK inhibitor (4 groups); type: in vivo; settings: 14 days after transplantation, laminin 511-E8 fragment (2.1 nM) added group, with Y-27632 100 μM
Experimental: Tests were conducted with 4 groups of 4 rabbits, i.e., group injected with cultured corneal endothelial cells together with Y-27632 (+) (100 μM) after detaching corneal endothelial cells without detaching the Descemet's membrane, group injected with cells together with laminin 511-E8 fragments (2.1 nM) and Y-27632 (+) (100 μM) after detaching corneal endothelial cells without detaching the Descemet's membrane, group in which a bullous keratopathy model with detached Descemet's membrane was injected with cells together with Y-27632 (100 μM), and group in which a bullous keratopathy model with detached Descemet's membrane was injected with cells together with laminin 511-E8 fragments (2.1 nM) and Y-27632 (+) (100 μM).
The corneal thickness was measured with an ultrasound pachymeter (SP-2000; Tomey, Nagoya, Japan). When unmeasurable, 1200 μm, which is the measurable upper limit value, was used. Further, the ocular pressure was measured with a Tonovet (M. E. Technica, Tokyo).
The histological examination shown in FIG. 8 was conducted in the same manner as in Example 1.

p-FAK = experiment: Western blot of cell adhesion associated protein Phospho-FAK in corneal endothelial cells; type: cell-based, human; settings: HCEC; laminin 511-E8 fragments 2.1 nM; three hours after seeding
Experimental: as §1

[5] = test system: monkey bullous keratopathy model; experiment: Cultured corneal endothelium transplantation in monkey bullous keratopathy model with laminin 511-E8 fragments; type: in vivo; settings: cynomolgus monkey
Experimental: A cynomolgus monkey corneal endothelium was mechanically detached using a 20 gauge silicone needle (Soft Tapered Needle; Inami & Co., Ltd., Tokyo, Japan) to make a bullous keratopathy model. In FIG. 9, […] cultured monkey corneal endothelial cells were injected with DMEM containing laminin 511-E8 fragments adjusted to a concentration of 2.1 nM into the anterior chamber of the bullous keratopathy model, which was maintained in a face-down posture for three hours. In FIG. 10, the Descemet's membrane was detached in a produced bullous keratopathy model and, similarly, 5.0×10^5 cultured monkey corneal endothelial cells were injected with DMEM containing laminin 511-E8 fragments adjusted to a concentration of 2.1 nM into the anterior chamber of the bullous keratopathy model, which was maintained in a face-down posture for three hours.
The corneal thickness was measured with an ultrasound pachymeter (SP-2000; Tomey, Nagoya, Japan). When unmeasurable, 1200 μm, which is the measurable upper limit value, was used.

[6] = test system: monkey bullous keratopathy model; experiment: Laminin coating of corneal stroma in Descemet's membrane detached monkey bullous keratopathy model, then cell transplantation; type: in vivo; settings: cynomolgus monkey, laminin 511-E8 21 nM in anterior chamber for one hour (coating), then MCEC with 2.1 nM
Experimental: A cynomolgus monkey corneal endothelium was mechanically detached using a 20 gauge silicone needle (Soft Tapered Needle; Inami & Co., Ltd., Tokyo, Japan) to make a bullous keratopathy model. The Descemet's membrane was detached in the produced bullous keratopathy model. Laminin 511-E8 fragments were injected into the anterior chamber of the bullous keratopathy model at a concentration of 21 nM and the model was left standing for one hour. The corneal stroma exposed by detaching the Descemet's membrane was coated thereby in the living body. Subsequently, 5.0×10^5 cultured monkey corneal endothelial cells were injected with DMEM containing laminin 511-E8 fragments adjusted to a concentration of 2.1 nM into the anterior chamber of the bullous keratopathy model, which was maintained in a face-down posture for three hours as in Example 3.

[7] = rabbit cornea after transplantation of RCEC with laminin 511-E8 fragments 2.1 nM

Molecule	adhering cell density [1]	corneal thickness ([2]; average on day 7, RCEC injected with laminin 511-E8 fragments 2.1 nM, ultrasound pachymeter)	N-cadherin (adherence junction) immunostaining [2, 7]	Na+/K+-ATPase (pumping function) immunostaining [2, 7]	ZO-1 (tight junction, barrier function) immunostaining [2, 7]	cell morphology by phalloidin staining [2, 7]	cornea appearance in pictures of anterior ocular segment ([2]; rabbit, cultured RCEC injected into anterior chamber with or without laminin 511-E8 fragments 2.1 nM, after one and two weeks)	p-Paxillin (p-Paxillin)	number of adhering cells after 24 hours [3]	cell morphology by phalloidin staining [4]	p-FAK (p-FAK)	cornea appearance (anterior ocular segment pictures) ([5]; Descemet's membrane detached, 5.0x10^5 MCEC with laminin 511-E8 2.1 nM, no coating)	corneal thickness becoming thin ([5]; Descemet's membrane detachment group)	healing of bullous keratopathy (anterior ocular segment pictures) ([5]; no Descemet's membrane detachment, 5.0x10^5 MCEC with laminin 511-E8 2.1 nM, up to Day 14)	corneal thickness becoming thin ([5]; without Descemet's membrane detachment)	cornea appearance (anterior ocular segment pictures) [6]
C[C@@H](N)[C@H]1CC[C@H](C(=O)Nc2ccncc2)CC1 [Y-27632, (R)-(+)-trans-(4-pyridyl)-4-(1-aminoethyl)-cyclohexanecarboxamide dihydrochloride monohydrate, reference compound]	717.3 cells/mm^2	–	–	–	–	–	–	–	–	–	–	–	–	–	–	–
B1	1662.8 cells/mm^2	637 μm	normally expressed	expressed	expressed	monolayer polygonal morphology	transparent and healed	promoted	137.3±2.8%	normal monolayer polygonal morphology	promoted	not transparent or healed	did not become thin	heal bullous keratopathy	it did	transparent and healed
